The supplement of paper PMC12764529
± gives the half width of the 95% confidence interval.

Experiments:
[1] = folding stability dG unfold from trypsin proteolysis; higher = more stable
Procedure, shortened: (§1)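 Unfolding free energy was derived, per protease or combined, against a sequence-predicted unfolded-state K50 and a shared folded-state K50, starting from K50 inferred by Bayesian fitting of sequencing counts. Digestion with trypsin and chymotrypsin was carried out on designed mini-proteins under 80 residues without cysteine in a PA-tagged cDNA display construct. Only designs with AlphaFold2 dimer inter-PAE above 15 were kept.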

[2] = folding stability dG unfold from chymotrypsin proteolysis; higher = more stable
Procedure, shortened: as §1

[3] = folding stability dG unfold (combined trypsin and chymotrypsin); higher = more stable
Procedure, shortened: as §1

Sequence	folding stability dG unfold [1] [kcal/mol]	folding stability dG unfold [2] [kcal/mol]	folding stability dG unfold [3] [kcal/mol]
SAGMPLRTVKVLVTINDKTEEKTLSEEELKALIESGELELLGKEPEENIVYVYKKVPPPVGSKTKKSLLSAG [r5_868_JUSTAS]	0.71 ± 0.29	1.94 ± 0.17	1.64 ± 0.27
SSMTTTEKKYTYNDSSISVSTTTLPDGSKLITTPITRKNPDGIDVTETLTTLDKGSGVTPVSPSTSTLNTSA [r9_554_JUSTAS]	-1.24 ± 0.18	0.602 ± 0.035	0.177 ± 0.069
SAGGSAGGSAGGATAEELAAALKELEAKLKALLEKPEEVEVEVEVKAPEVEEVDGKLVLLSAGGSAGGSAGG [r7_44_TrROS_Hall]	0.651 ± 0.041	-1.19 ± 0.33	0.145 ± 0.11
SAGSRTVTLTFYRPLSRPPGGAPVVREAERTVTLNLPDDTLSEEEIEALAEELRAEHPDVEVEITIDDSAGG [r19_369_JUSTAS]	0.664 ± 0.049	1.41 ± 0.092	1.18 ± 0.17
SAGGSAGGSAGGEKEPVTLLVVRVDGKLVVVSEEELKKLAEELNVEVEVRLVTVTKEELKSAGGSAGGSAGG [r7_185_TrROS_Hall]	0.567 ± 0.038	1.94 ± 0.033	1.57 ± 0.085
SAGGMSVSFPVDSSEELKKLLPKDYLVEIVSTPPDGSKSVRVVRPEDLEIDLPEGEKYYFEIKFLPKESAGG [r13_461_TrMRF]	0.442 ± 0.072	-0.138 ± 0.093	0.203 ± 0.19
SAGGSASPEKVAEELKKKGYKEVKITKDPNTNVTTVTVEDPSGKKYTLTVDPKNPTVVSKKEFSLDSAGGSA [r15_648_JUSTAS]	0.926 ± 0.043	1.51 ± 0.096	1.25 ± 0.14
SAGNPDYIPIPFRVWIMRRVPPGMSKEQAKKNPDMYVMVPIPVKFYIDPDTGRIRVENPDGKTIEFPLPSAG [r5_701_TrROS]	2.11 ± 0.03	3.15 ± 0.07	2.68 ± 0.096
SAGGMPPGSFRVRARRPVPLFVRVRLPNDPDVTVTFPVTVPAELELPVNSPEALEALREAGFEIEPASAGGS [r8_482_TrMRF]	0.608 ± 0.14	0.114 ± 0.33	0.357 ± 0.18
SAGGSAGGSAGKPVLKLTVTLPNGLTVTVTINPDGEITVEIRPLPPPPPPVRTYSDEELKSAGGSAGGSAGG [r11_1015_TrROS_Hall]	2.29 ± 0.19	2.75 ± 0.16	2.1 ± 0.31
SAGGSPHVSTDAADPELAARLLREAFGTDEVPLVRRDPTTGALLAFLPATGRLVWTDRTTVRVEPSSAGGSA [r2_205_TrMRF]	0.325 ± 0.13	-0.0869 ± 0.13	0.13 ± 0.074
SAGGSAGGSPKWKTIEITVLVPGMPAEEIAKNIANNFGIEITDIDVQLFPNGWVVVSATIRVKSAGGSAGGS [r12_359_TrROS]	2.59 ± 0.087	3.16 ± 0.051	2.99 ± 0.096
SAGGSAGGSAGGMEVYRNPETGTLVFLFELEDGSYVAVTINPDGSVEVRVFDKDGRWVPSAGGSAGGSAGGS [r10_299_TrROS_Hall]	2.61 ± 0.064	3.507 ± 0.027	3.03 ± 0.081
SAGSPATLRAQAEEEARALAAELGAEVTVDVTVEPVPGEYVVRTTATLTFPGGEVRTLPRTTRVPRSLVSAG [r5_609_JUSTAS]	0.671 ± 0.071	1.09 ± 0.08	0.953 ± 0.08
SAGTIRGLPAEFAKRIANELAQNGYEIVAVTVTYDPPNGTFKIEVEMRPPNGKVREHDIEIQVRLPPDDSAG [r5_985_TrROS]	1.72 ± 0.057	2.7 ± 0.092	2.45 ± 0.17
SAGGSAGGSASMNVLVVRTKPDGTPEVTEVETGDPEKAKEEIAKRSNVTTPEGTVTVELTGVSAGGSAGGSA [r18_457_JUSTAS]	-1.02 ± 0.13	-1.06 ± 0.27	-0.961 ± 0.46
SANIQIMIEDWDPERGWIRISIQVDKGDPDKPITPELVNNIRELFRFRGIEVNIEVHPDGMVNIEIPIPSAG [r14_865_TrROS]	3.39 ± 0.069	4.59 ± 0.051	4.14 ± 0.094
SKKKKKKKKKKPKTVIIEIDVKEMSEEEIREILKKLPKNVKRVIIIAKSEEEKEKLKELLKEAGYEVEIVSA [r9_919_TrROS_Hall]	1.96 ± 0.18	1.94 ± 0.069	1.76 ± 0.25
SAGGSAGGSPYLVTVTLPDGSTLTHTIPVPPDVPLSEEEIRERIRREYPGPPLGPITIERPTESAGGSAGGS [r12_262_JUSTAS]	0.885 ± 0.015	1.62 ± 0.047	1.35 ± 0.09
SAGGSAKKKEVKELTLVIKVKTEEEALKAAEELIRKLLPPDAEIVEVKVEKVKPGEVYITVKVRLKSAGGSA [r15_183_TrROS_Hall]	2.36 ± 0.12	3.99 ± 0.14	3.67 ± 0.18
SAGGSAGGSAGGGKEISLDELIDIAIELGYPGTIEDLLADPNIKIYPNPYDDKPVILIPDSAGGSAGGSAGG [r7_180_TrMRF]	1.7 ± 0.065	0.576 ± 0.053	1.25 ± 0.086

Sequence	folding stability dG unfold [1] [kcal/mol]	folding stability dG unfold [2] [kcal/mol]	folding stability dG unfold [3] [kcal/mol]
SAGGSSIKIEKIEKHENGVKIDISVPDLSNEEEINAVKKKLAEELGLKEEDVEVSLKSENIPLPPSIGSAGG [r13_430_JUSTAS]	0.474 ± 0.11	2.32 ± 0.21	1.75 ± 0.22
SPLKEGDTLTFTLPVPDLPNVRIEIDLHFYKDPNTDRYRVLANITVYYGDKPVTFSIEMPVDTFLDLLKSSA [r9_71_TrMRF]	2.99 ± 0.24	2.34 ± 0.12	2.87 ± 0.18
SAGGSAGGSAGKKIKVKIEVVYTDEDGNKHKVEMEKEIELKPGDKITLPPEAITRVEILPSAGGSAGGSAGG [r11_664_TrROS_Hall]	0.832 ± 0.17	1.95 ± 0.12	1.57 ± 0.19
SAPKILKVETFPDGSIKVEIPLPETGAIVTITVDPDGNVVVEFYPPKSGKPVRKTIPGKTIEEVLKELGSAG [r14_760_TrMRF]	1.41 ± 0.086	1.83 ± 0.052	1.63 ± 0.12
MEEIKNLPGVKYEPIIEDGEIRLVRFEIPKEVFEKFGKPPVILLVEFSKDGKYRILPESIPKLLELGIIPGS [r1_256_TrMRF]	1.85 ± 0.023	2.52 ± 0.058	2.27 ± 0.052
SEPVPVKIEISTSVDSNGNPSVTITVYNEEKVYTNPLNGATILSVDPNKQYIVIENPALGTKLTLSYTLISA [r9_1186_JUSTAS]	2.07 ± 0.086	2.75 ± 0.048	2.49 ± 0.093
SAGGSAGGSAGGSPNYRLEIRVDIKVSYRYDLFTGEPIEPEVEIEVEIRLIPEGAIVDESAGGSAGGSAGGS [r4_175_TrMRF]	3.87 ± 0.14	4.54 ± 0.28	4.57 ± 0.28
SAGGSMPVPYESKNVSPSGVEVSSTTYPYDFQIEKFPGSNPVITRTDPKTGEVTPIGTEEELEKLLKSAGGS [r8_232_JUSTAS]	-0.172 ± 0.047	0.182 ± 0.21	0.0982 ± 0.13
SAGGSAGGSAGKTIKILLVVKDPETNEYYFLVMEIHLDENGNLHMKIKVFPTKEDAEKALSAGGSAGGSAGG [r11_792_TrROS_Hall]	3.66 ± 0.19	4.15 ± 0.085	4.06 ± 0.15
SAGGMTLEELKAKITKVEVEEREDGSLKLRLTIKVKNEDGSEEEIELTITLPEEEKNMSLEELLEKLLSAGG [r13_319_TrROS_Hall]	4.26 ± 0.27	3.82 ± 0.12	4.03 ± 0.13
SAGGSAGGSMPPVVLEVKDPESGKVTTLFFFPPTGEALVVPPDGSVFYEPFTSLDELVERLAGSAGGSAGGS [r12_511_TrMRF]	1.4 ± 0.055	1.71 ± 0.051	1.57 ± 0.091
SMMKIRIVNKETKEEIEEIEIEKNEDGSYTIKIKIKKNGKTYEIEIKLPKGMKIEELLKKLGIEKAEIEPSA [r9_492_TrROS_Hall]	1.55 ± 0.049	1.98 ± 0.11	1.79 ± 0.11
SAGGSAKELIIKIKIKVKVNGKTYEIEIEIKAESIEEAIEAIKKKLEEEGLEIEIVEIEIIPKEELSAGGSA [r15_165_TrROS_Hall]	3 ± 0.086	3.08 ± 0.081	2.99 ± 0.1
KIKELAKKLGLNVTVKVEKKPIKNPDGSTYTITKVEVTVDKKNKTITIKVEVKNKKTNKTITKTYTIKLKKS [r1_448_TrROS_Hall]	2.37 ± 0.12	2.26 ± 0.11	2.64 ± 0.24
SMLNIPSDWKVITIKLEYKVEPGVSEEEVKEKAIEELKKKFPKNTKIEVEVTPDPETGTVTIKITIIIKKSA [r9_657_JUSTAS]	2.15 ± 0.062	1.38 ± 0.056	1.84 ± 0.1
SAGGSATLPEKILEELAAAGYPLEYVTITEVKTEERPGSVVVTVKVEYKVPNSDRIETVNLTVPRPSAGGSA [r15_863_JUSTAS]	1.71 ± 0.032	1.68 ± 0.029	1.73 ± 0.036
SDWHYIQIPFEITFKAPPEQARQFVEDLAENLGITDINVDNIEYDPNNGEVKVKVSISIMIPPPPPPEDDSA [r9_918_TrROS]	2.36 ± 0.15	3.36 ± 0.12	2.73 ± 0.2
SAGGMKVKKIPVIVKILRKKDKKPIKEIPALAYKVDDKIYLVFEKPKDIKIAKEIAEKTGLPIEIYPSAGGS [r16_327_TrMRF]	1.01 ± 0.025	2.02 ± 0.062	1.66 ± 0.066
SAGGSAGGSAMPKTTVYTIPYESDEEAEARIEEIKAEARARNPEAKVTVTPAGESVNVTIVGSAGGSAGGSA [r18_469_JUSTAS]	-0.7 ± 0.34	-0.116 ± 0.19	-0.376 ± 0.2
SAGGSAGGKTISIPGSIEEIQEKLGGPIDEVEHNKPGSGSYKPKNGKPITIHFDSPEDILDFFKSAGGSAGG [r6_19_TrROS]	0.318 ± 0.032	-0.0753 ± 0.15	0.206 ± 0.12
SAGMTIKIKNKKTNKVITIERRPDGTTVKVKVYDKNGKLVKTYPEGMTLEELLKKFPNAKVEVVEVEKPSAG [r5_314_TrROS_Hall]	1.47 ± 0.033	0.559 ± 0.11	1.14 ± 0.07
